B1: N-terminal domain with longer linker (NTDL) of H. pylori DnaB helicase (residues 1-144) (domain or fragment)
chain: MDHLKHLQQLQNIERIVLSGIVLANHKIEEVHSVLEPSDFYYPPNGLFFEIALKLHEEDCPIDENFIRQKMPKDKQIKEEDLVAIFAASPIDNIEAYVEEIKNASIKRKLFGLANTIREQALESAQKSSDILGAVEREVYALLN
B2: H. pylori DnaB helicase, full length (enzyme)
chain: MDHLKHLQQLQNIERIVLSGIVLANHKIEEVHSVLEPSDFYYPPNGLFFEIALKLHEEDCPIDENFIRQKMPKDKQIKEEDLVAIFAASPIDNIEAYVEEIKNASIKRKLFGLANTIREQALESAQKSSDILGAVEREVYALLNGSTIEGFRNIKEVLESAMDLITENQRKGSLEVTGIPTGFVQLDNYTSGFNKGSLVIIGARPSMGKTSLMMNMVLSALNDDRGVAVFSLEMSAEQLALRALSDLTSINMHDLESGRLDDDQWENLAKCFDHLSQKKLFFYDKSYVRIEQIRLQLRKLKSQHKELGIAFIDYLQLMSGSKATKERHEQIAEISRELKTLARELEIPIIALVQLNRSLENRDDKRPILSDIKDSGGIEQDADIVLFLYRGYIYQMRAEDNKIDKLKKEGKIEEAQELYLKVNEERRIHKQNGSIEEAEIIVAKNRNGATGTVYTRFNAPFTRYEDMPIDSHLEEGQETKVDYDIVTT
B3: N-terminal domain (NTD) of H. pylori DnaB helicase (residues 1-121) (domain or fragment, UniProt O25916 1-121, looked up)
chain: MDHLKHLQQLQNIERIVLSGIVLANHKIEEVHSVLEPSDFYYPPNGLFFEIALKLHEEDCPIDENFIRQKMPKDKQIKEEDLVAIFAASPIDNIEAYVEEIKNASIKRKLFGLANTIREQA
notes: Cloned NcoI/XhoI into pET 28a; also called NTD of HpDnaB; source: E. coli BL21 (DE3), purified (Ni-NTA, Superdex-75 gel filtration); not shown: His6, C-terminal, kept

What was measured:
[1] = target: C-terminal domain (CTD) of H. pylori DnaG primase (H. pylori) (UniProt P56064); assay: SPR; Biacore 2000, 25°C; 750 RU of CTD of HpDnaG amine-coupled on a CM4 chip; helicase samples (10 µM) injected at 20 µl/min in 10 mM Hepes pH 7.4, 150 mM NaCl, 3 mM EDTA, 0.005% P20
C-terminal domain (CTD) of H. pylori DnaG primase (H. pylori), sequence (P56064 whole entry, the tested form may be a part): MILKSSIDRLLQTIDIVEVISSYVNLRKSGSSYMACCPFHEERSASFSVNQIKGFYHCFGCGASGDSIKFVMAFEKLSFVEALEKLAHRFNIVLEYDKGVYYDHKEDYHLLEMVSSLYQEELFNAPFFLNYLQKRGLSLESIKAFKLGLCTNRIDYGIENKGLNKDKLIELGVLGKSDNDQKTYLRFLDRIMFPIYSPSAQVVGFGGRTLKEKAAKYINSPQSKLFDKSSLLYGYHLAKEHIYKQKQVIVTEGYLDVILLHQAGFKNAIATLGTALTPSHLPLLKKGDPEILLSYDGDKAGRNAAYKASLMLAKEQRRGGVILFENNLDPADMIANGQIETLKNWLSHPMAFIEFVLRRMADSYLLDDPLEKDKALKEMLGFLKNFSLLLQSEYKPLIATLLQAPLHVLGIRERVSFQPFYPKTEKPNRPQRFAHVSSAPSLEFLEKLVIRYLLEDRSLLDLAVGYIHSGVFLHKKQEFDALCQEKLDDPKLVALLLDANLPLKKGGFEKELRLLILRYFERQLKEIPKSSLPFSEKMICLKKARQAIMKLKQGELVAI

[2] = target: the molecule itself; assay: SEC; Hi Load superdex-75 16/60 column, 20 mM Tris.Cl pH 7.5, 100 mM NaCl, 1 mM EDTA, 5 mM βME; mass deduced from a plot of gel filtration standards

| Binder | Kd [1] [nM] | stoichiometry N [2] |
| --- | --- | --- |
| B1 | 110 |  |
| B2 | 2250 |  |
| B3 |  | 2 |

Reference: PMC2761005, “Three-Dimensional Structure of N-Terminal Domain of DnaB Helicase and Helicase-Primase Interactions in Helicobacter pylori” (PLoS ONE, 2009)
